# T1: FZD3 cysteine-rich domain (CRD), MYC-tagged and GPI-anchored on CHO cells (human, UniProt Q9NPG1 24-150, GPI anchor)
# T1 construct: domain: cysteine-rich domain (CRD); also called FZD3 CRD; CHO-myc-FZDGPI; not shown: MYC tag and GPI anchor signal
# T1 sequence (looked up): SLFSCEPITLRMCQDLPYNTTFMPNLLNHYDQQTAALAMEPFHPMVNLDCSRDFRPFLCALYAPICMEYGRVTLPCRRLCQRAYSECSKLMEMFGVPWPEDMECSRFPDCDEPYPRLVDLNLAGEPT
# T2: FZD5 cysteine-rich domain (CRD), MYC-tagged and GPI-anchored on CHO cells (human, UniProt Q13467 29-156, GPI anchor)
# T2 construct: also called FZD5 CRD; CHO-myc-FZDGPI; not shown: MYC tag and GPI anchor signal
# T2 sequence: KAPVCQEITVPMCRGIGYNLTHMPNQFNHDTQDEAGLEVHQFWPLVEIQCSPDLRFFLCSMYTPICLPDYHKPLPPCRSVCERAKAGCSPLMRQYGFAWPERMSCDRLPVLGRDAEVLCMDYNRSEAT
# T3: FZD6 cysteine-rich domain (CRD), MYC-tagged and GPI-anchored on CHO cells (human, UniProt O60353 20-146, GPI anchor)
# T3 construct: also called FZD6 CRD; CHO-myc-FZDGPI; not shown: MYC tag and GPI anchor signal
# T3 sequence: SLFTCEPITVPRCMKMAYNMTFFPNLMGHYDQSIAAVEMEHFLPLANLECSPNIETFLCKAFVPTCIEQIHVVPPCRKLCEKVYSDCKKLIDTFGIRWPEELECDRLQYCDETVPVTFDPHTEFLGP
# T4: FZD8 cysteine-rich domain (CRD), MYC-tagged and GPI-anchored on CHO cells (human, UniProt Q498S8 31-155 (rat entry), GPI anchor)
# T4 construct: also called FZD8 CRD; CHO-myc-FZDGPI; not shown: MYC tag and GPI anchor signal
# T4 sequence: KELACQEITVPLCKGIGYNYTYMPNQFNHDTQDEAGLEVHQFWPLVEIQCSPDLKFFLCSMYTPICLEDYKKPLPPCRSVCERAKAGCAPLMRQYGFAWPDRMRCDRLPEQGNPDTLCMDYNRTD
# T5: FZD9 cysteine-rich domain (CRD), MYC-tagged and GPI-anchored on CHO cells (human, UniProt O00144 35-161, GPI anchor)
# T5 construct: also called FZD9 CRD; CHO-myc-FZDGPI; not shown: MYC tag and GPI anchor signal
# T5 sequence: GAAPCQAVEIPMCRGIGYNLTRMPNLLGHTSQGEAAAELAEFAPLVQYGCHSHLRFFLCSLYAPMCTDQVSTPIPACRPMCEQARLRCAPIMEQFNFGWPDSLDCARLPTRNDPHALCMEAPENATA
# T6: FZD10 cysteine-rich domain (CRD), MYC-tagged and GPI-anchored on CHO cells (human, UniProt Q9ULW2 30-156, GPI anchor)
# T6 construct: also called FZD10 CRD; CHO-myc-FZDGPI; not shown: MYC tag and GPI anchor signal
# T6 sequence: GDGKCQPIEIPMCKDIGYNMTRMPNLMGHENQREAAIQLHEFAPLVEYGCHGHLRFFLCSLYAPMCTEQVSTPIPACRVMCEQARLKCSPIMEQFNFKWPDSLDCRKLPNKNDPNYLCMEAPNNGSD
# T7: FZD4 cysteine-rich domain (CRD), MYC-tagged and GPI-anchored on CHO cells (human, UniProt Q9ULV1 42-167, GPI anchor)
# T7 construct: also called FZD4 CRD; CHO-myc-FZDGPI; not shown: MYC tag and GPI anchor signal
# T7 sequence: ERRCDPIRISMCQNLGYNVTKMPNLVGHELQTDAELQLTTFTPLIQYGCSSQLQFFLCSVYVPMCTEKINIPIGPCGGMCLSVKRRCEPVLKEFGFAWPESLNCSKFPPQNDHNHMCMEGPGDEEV
# Columns and labels:
# [1] = target: T8, FZD1 cysteine-rich domain (CRD), MYC-tagged and GPI-anchored on CHO cells (human); assay: flow cytometry, CHO-CRD cells;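 further: flow cytometry of Fab binding to CHO cells overexpressing a Frizzled CRD, with binding defined as median fluorescence over twice that of CHO cells lacking any Frizzled CRD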
# Method: (§1) Binding was measured via flow cytometry analysis of CHO cells overexpressing CRD of FZD1, FZD2, FZD3, FZD4, FZD5, FZD6, FZD7, FZD8, FZD9 or FZD10. Median fluorescence values are shown.
# [2] = target: T9, FZD2 cysteine-rich domain (CRD), MYC-tagged and GPI-anchored on CHO cells (human, UniProt Q14332 35-161); assay: flow cytometry, CHO-CRD cells;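 further: flow cytometry of Fab binding to CHO cells overexpressing a Frizzled CRD, with binding defined as median fluorescence over twice that of CHO cells lacking any Frizzled CRD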
# Method: as §1
# [3] = target: T1, FZD3 cysteine-rich domain (CRD), …; assay: flow cytometry, CHO-CRD cells;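 further: flow cytometry of Fab binding to CHO cells overexpressing a Frizzled CRD, with binding defined as median fluorescence over twice that of CHO cells lacking any Frizzled CRD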
# Method: as §1
# [4] = target: T2, FZD5 cysteine-rich domain (CRD), …; assay: flow cytometry, CHO-CRD cells;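 further: flow cytometry of Fab binding to CHO cells overexpressing a Frizzled CRD, with binding defined as median fluorescence over twice that of CHO cells lacking any Frizzled CRD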
# Method: as §1
# [5] = target: T3, FZD6 cysteine-rich domain (CRD), …; assay: flow cytometry, CHO-CRD cells
# Method: as §1
# [6] = target: T10, FZD7 cysteine-rich domain (CRD), MYC-tagged and GPI-anchored on CHO cells (human, UniProt O75084 45-169); assay: flow cytometry, CHO-CRD cells
# Method: as §1
# [7] = target: T4, FZD8 cysteine-rich domain (CRD), …; assay: flow cytometry, CHO-CRD cells
# Method: as §1
# [8] = target: T5, FZD9 cysteine-rich domain (CRD), …; assay: flow cytometry, CHO-CRD cells
# Method: as §1
# [9] = target: T6, FZD10 cysteine-rich domain (CRD), …; assay: flow cytometry, CHO-CRD cells
# Method: as §1
# [10] = target: T8, FZD1 cysteine-rich domain (CRD), …; assay: immunofluorescence, CHO-CRD cells
# [11] = target: T9, FZD2 cysteine-rich domain (CRD), …; assay: immunofluorescence, CHO-CRD cells
# [12] = target: T1, FZD3 cysteine-rich domain (CRD), …; assay: immunofluorescence, CHO-CRD cells
# [13] = target: T3, FZD6 cysteine-rich domain (CRD), …; assay: immunofluorescence, CHO-CRD cells
# [14] = target: T10, FZD7 cysteine-rich domain (CRD), …; assay: immunofluorescence, CHO-CRD cells
# [15] = target: T5, FZD9 cysteine-rich domain (CRD), …; assay: immunofluorescence, CHO-CRD cells
# [16] = target: T6, FZD10 cysteine-rich domain (CRD), …; assay: immunofluorescence, CHO-CRD cells
# [17] = target: T7, FZD4 cysteine-rich domain (CRD), …; assay: flow cytometry, CHO-CRD cells
# Method: as §1
# [18] = target: T7, FZD4 cysteine-rich domain (CRD), …; assay: immunofluorescence, CHO-CRD cells
median fluorescence [1],median fluorescence [2],median fluorescence [3],median fluorescence [4],median fluorescence [5],median fluorescence [6],median fluorescence [7],median fluorescence [8],median fluorescence [9],binding result [10],binding result [11],binding result [12],binding result [13],binding result [14],binding result [15],binding result [16],median fluorescence [17],binding result [18],Binder
4.83,4.78,4.1,56.2,3.68,2.62,9.14,2.89,2.74,no binding,no binding,no binding,no binding,no binding,no binding,no binding,,,"Fab-2922 (Fab, V domains shown, Fab; also called Fv-2922) VH: EVQLVESGGGLVQPGGSLRLSCAASGFNIYSSYMHWVRQAPGKGLEWVASISPYSGYTSYADSVKGRFTISADTSKNTAYLQMNSLRAEDTAVYYCARTVRGSKKPYFSGWAMDYWGQGTLVTVSS VL: DIQMTQSPSSLSASVGDRVTITCRASQSVSSAVAWYQQKPGKAPKLLIYSASSLYSGVPSRFSGSRSGTDFTLTISSLQPEDFATYYCQQSFVYPYLITFGQGTKVEIK"
5.73,4.57,3.75,28.6,3.02,4.91,7.5,2.89,2.94,no binding,no binding,no binding,no binding,no binding,no binding,no binding,4.22,no binding,"Fab-2920 (Fab, V domains shown, Fab) VH: EVQLVESGGGLVQPGGSLRLSCAASGFNISYYYIHWVRQAPGKGLEWVASIYPSSGSTSYADSVKGRFTISADTSKNTAYLQMNSLRAEDTAVYYCARGGMDYWGQGTLVTVSS VL: DIQMTQSPSSLSASVGDRVTITCRASQSVSSAVAWYQQKPGKAPKLLIYSASSLYSGVPSRFSGSRSGTDFTLTISSLQPEDFATYYCQQWFAGALITFGQGTKVEIK"
3.05,3.52,3,23.5,2.57,2.55,7.04,2.74,2.5,no binding,no binding,no binding,no binding,no binding,no binding,no binding,3.65,no binding,"Fab-2936 (Fab, V domains shown, Fab; also called Fv-2936) VH: EVQLVESGGGLVQPGGSLRLSCAASGFNISYYYMHWVRQAPGKGLEWVASIYSSSGSTSYADSVKGRFTISADTSKNTAYLQMNSLRAEDTAVYYCARAAMDYWGQGTLVTVSS VL: DIQMTQSPSSLSASVGDRVTITCRASQSVSSAVAWYQQKPGKAPKLLIYSASSLYSGVPSRFSGSRSGTDFTLTISSLQPEDFATYYCQQWYAASLITFGQGTKVEIK"
6.26,6.73,4.7,39.2,4.49,6.49,12.1,4.49,4.78,no binding,no binding,no binding,no binding,no binding,no binding,no binding,6.38,no binding,"Fab-2924 (Fab, V domains shown, Fab; also called Fv-2924) VH: EVQLVESGGGLVQPGGSLRLSCAASGFNISYSYIHWVRQAPGKGLEWVASIYSYYSSTSYADSVKGRFTISADTSKNTAYLQMNSLRAEDTAVYYCARGALDYWGQGTLVTVSS VL: DIQMTQSPSSLSASVGDRVTITCRASQSVSSAVAWYQQKPGKAPKLLIYSASSLYSGVPSRFSGSRSGTDFTLTISSLQPEDFATYYCQQWYSGHSLITFGQGTKVEIK"
